Series [1] concerns CDCP1-positive TKCC05 cells. The experiment in a line: Lindmo assay, immune-reactive fraction. It is filed as binding, human. As to conditions: 3 h at 4° C. As for the experimental part: 10D7 and control IgG1κ were labelled with the positron-emitting radionuclide ^89Zr as described (Zeglis B M and Lewis J S (2015) J Vis Exp 96:52521). Yield and purity of the labelled antibodies were determined by radio-TLC and -HPLC (Agilent, Mulgrave, Australia). To assess the impact of radiolabelling on 10D7 binding, the immune-reactive fraction (IRF) of 10D7-^89Zr was determined by Lindmo assay as previously described (Burvenich I J et al (2016) J Nucl Med. 57(6):974-80). Briefly, serially diluted TKCC05 cells (5×10^6-0.156×10^6 cells) were incubated with various amounts of 10D7-^89Zr alone or in the presence of a saturating amount of unlabelled 10D7 antibody (700 nM). After incubation (3 h at 4° C.) cells were centrifuged and the radioactivity of the cell pellet and supernatant was determined using a Wizard 2480 gamma counter (Perkin Elmer, Milton, Australia) and immunoreactive fraction (IRF) was calculated as previously described (Tolmachev V, Orlova A, Andersson K. (2014) Methods Mol Biol. 1060:309-30; Burvenich I J et al (2016) J Nucl Med. 57(6):974-80).
To evaluate whether the ability of antibody 10D7 to disrupt cellular processes that promote PDAC in vitro can be harnessed to target this cancer in vivo, the inventors first evaluated the capacity of this antibody to detect PDAC xenografts in mice. […]

Series [2] deals with clear cell EOC PDX PH250. As to conditions: mouse, in vivo. As for the experimental part: Mouse experiments were approved by the University of Queensland Animal Ethics Committee. For PET/CT imaging female NOD.Cg-Prkdc^scid Il2rg^tmwil/SzJ mice (6-8 weeks; 4 per group; Jackson Laboratory, Bar Harbor, Me.) were injected intraperitoneally with cells dissociated from a previously described clear cell EOC PDX designated PH250 (Weroha S J, et al., (2014) Clin Cancer Res. 2014; 20(5):1288-97) (0.2 g/mouse of pelleted cell slurry). CDCP1 expression by PDX PH250 was assessed by immunohistochemical and Western blot analysis as described (He Y, et al., (2016) Oncogene. 35(4):468-78.). 10D7 and IgG1K control were labelled with the positron-emitting radionuclide ^89Zr as described (Zeglis B M, et al., (2015) J Vis Exp. (96): 52521)), and yield and purity determined by radio-TLC and -HPLC (Agilent, Mulgrave, Australia). […] PET image acquisition (30 minutes) was followed by CT for anatomical registration and attenuation correction, with images reconstructed and analyzed using the Inveon Research Workspace (Siemens). Ex vivo bio-distribution was assessed after the final imaging time point. Harvested tumour and organs, cleaned of blood, were weighed and radioactivity quantified using a PerkinElmer 2480 Automatic Gamma Counter (Perkin Elmer, Milton, Australia) and presented as % ID/g of tumour or tissue. […]

B1: ^89Zr-DFO-10D7 (conjugate)
VH: EVQLQQFGAELVKPGASVKISCKASGYSFSDFNIEWLKQSHGKSLEWIGDINPNYDSTNYNQKFKGRATLTVDKSSSTAYMEVRSLTSEDTAVYYCARLGYGYAMDYWGQGTSVTVSS
VL: NIVMTQSPQSMSMSVGERVTLSCKASENVGAYVSWFQQKPDQSPKLLILAASNRYTGVPARFIGSGSATDFTLTISSVQAEDLADYHCGQSYTYPYTFGGGTKLEIKRADAAPTVS
Regarding B1, the “immune-reactive fraction (IRF)” value in series [1] is on record as 88.9%. Also, in series [2], the “percent injected dose per gram of tissue, tumour” value was found to be 47.7±2.6 % ID/g.

For the origin of these results see US20220389113A1, “BINDING PROTEINS TO CUB DOMAIN-CONTAINING PROTEIN (CDCP1)” (COMMONWEALTH SCIENTIFIC AND INDUSTRIAL RESEARCH ORGANISATION, priority 2019, published 2022).
